Measurements taken from US20060263331A1, “Therapeutic use of tumor necrosis factor-alpha mutein” (priority 2002, published 2006).

Legend:
Kidney Cancer = test: Clinical monotherapy of rhTNFm1, kidney cancer; type: in vivo, human; details: 3 patients
Excerpt: (§1) Patients were selected based on the following criteria: i) measurable, objective tumor; ii) Karnofsky performance status (KPS)≧60; iii) age 18-75; iv) major organs in basically normal condition; v) no chemotherapy, radiotherapy and biologic therapy within the last month; vi) predicted ≧3 mon. survival; and vii) with patient's informed consent signed.
(§2) Patients were excluded based on the following criteria: i) with history of allergic reactions to TNF or its derivatives; ii) pregnant or lactating women; iii) major organs with obvious damages or malfunction; iv) in ≧38° C. fever; v) with obvious tendency to haemorrhage; vi) with history of hypo- or hypertension; vii) with serious albuminemia; and viii) with strong tendency of disobedience or resistance.
(§3) Patients were removed from the evaluation if any of the following conditions apply: i) treatment was not completed according to the protocol; ii) incomplete records; and iii) treatment using cancer therapies not in the protocol. However, patients who withdrew due to adverse reactions to the therapy were still included in the evaluation.
(§4) The results of the treatment of tumors were evaluated based the following criteria: i) complete response (CR)—complete disappearance of observable pathological changes for at least 4 weeks; ii) partial response (PR)—reduction by ≧50% in tumor size measured by the product of the maximum circular and vertical dimensions for at least 4 weeks; iii) minimum response (MR)—reduction by >25% but <50% in tumor size measured by the product of the maximum circular and vertical dimensions for at least 4 weeks; iv) stabilized (SD)—reduction by ≦25% but without increase by >25% in tumor size measured by the product of the maximum circular and vertical dimensions for at least 4 weeks; and progression (PD): increase by >25% in tumor size in one or more sites.
(§5) Patients rested on day 1 and 2. The treatment cycle was 3-4 weeks.

Colon Cancer = test: Clinical monotherapy of rhTNFm1, colon cancer; type: in vivo, human; details: 7 patients
Excerpt: as §1, §2, §3, §4, §5

[1] = KPS of patients treated with rhTNFm1 alone; type: in vivo, human; details: P=0.013, particularly malignant pleural effusion
Excerpt: as §1, §5

Malignant melanoma = test: Clinical monotherapy of rhTNFm1, malignant melanoma; type: in vivo, human; details: 18 patients
Excerpt: as §1, §2, §3, §4, §5

Hodgkin's disease = test: Clinical monotherapy of rhTNFm1, Hodgkin's disease; type: in vivo, human; details: for Efficacy CR / Efficacy MR / Efficacy PD / Efficacy PR / Efficacy SD: patient count
Excerpt: as §1, §2, §3, §4, §5
Table II summaries results of the treatment of patients with malignant lymphoma, classified according to Hodgkin's disease and non-Hodgkin's lymphoma. Within each of category of lymphoma, patients were further classified into two groups: chemo-naïve and chemo-refractory. The chemo-naïve patients were patients who had never been treated with any anti-cancer agent previously whereas chemo-refractory patients were ones who failed treatment with one or more anti-cancer agent.

[2] = in vivo
Experimental: Patients with the following malignancy: malignant lymphoma, lung cancer, melanoma, breast cancer, liver cancer, kidney cancer, colon cancer, pleural effusion and ascites were treated with a monotherapy of the recombinant protein rhTNFm1 described above.
Patients were treated with rhTNFm1 at 600,000-900,000 unit/m^2 (about 1-50 μg/m^2 depending on the specific bioactivity of a particular lot) per day, 5 times a week (day 3-7) via i.v. injection. Patients rested on day 1 and 2. The treatment cycle was 3-4 weeks.

Liver Cancer = test: Clinical monotherapy of rhTNFm1, liver cancer; type: in vivo, human; details: 12 patients
Excerpt: as §1, §2, §3, §4, §5

Breast Cancer = test: Clinical monotherapy of rhTNFm1, breast cancer; type: in vivo, human; details: 10 patients
Excerpt: as §1, §2, §3, §4, §5

[3] = Chemo-naïve Grade I & II, 0 patients
[4] = Chemo-naïve Grade III & IV, 0 patients

B1: rhTNFm1: Recombinant human TNF-α mutant 1 expressed in E. coli; SEQ ID NO: 3 with N-terminal methionine (FIG. 1, 2) (protein)
chain: MRKRKPVAHVVANPQAEGQLQWLNRRANALLANGVELRDNQLVVPSEGLYLIYSQVLFKGQGCPSTHVLLTHTISRIAVSYQTKVNLLSAIKSPCQRETPEGAEAKPWYEPIYLGGVFQLEKGDRLSAEINRPDYLDFAESGQVYFGIIAQ
modifications: rhTNFm1 with Met
Response Rate (%) CR (Kidney Cancer): 0.00% | Response Rate (%) CR + PR (Kidney Cancer): 0.00% | Response Rate (%) PR (Kidney Cancer): 0.00% | Efficacy CR (Kidney Cancer; patient count): 0 | Efficacy MR (Kidney Cancer; patient count): 1 | Efficacy PD (Kidney Cancer; patient count): 1 | Efficacy PR (Kidney Cancer; patient count): 0 | Efficacy SD (Kidney Cancer; patient count): 1 | Response Rate (%) CR (Colon Cancer): 0.00% | Response Rate (%) CR + PR (Colon Cancer): 0.00% | Response Rate (%) PR (Colon Cancer): 0.00% | Efficacy CR (Colon Cancer; patient count): 0 | Efficacy MR (Colon Cancer; patient count): 0 | Efficacy PD (Colon Cancer; patient count): 4 | Efficacy PR (Colon Cancer; patient count): 0 | Efficacy SD (Colon Cancer; patient count): 3 | KPS compared to that prior to the treatment [1]: significantly improved | Response Rate (%) CR (Malignant melanoma): 0.00% | Response Rate (%) CR + PR (Malignant melanoma): 11.11% | Response Rate (%) PR (Malignant melanoma): 11.11% | Efficacy CR (Malignant melanoma; patient count): 0 | Efficacy MR (Malignant melanoma; patient count): 3 | Efficacy PD (Malignant melanoma; patient count): 3 | Efficacy PR (Malignant melanoma; patient count): 2 | Efficacy SD (Malignant melanoma; patient count): 10 | Response Rate (%) CR (Hodgkin's disease; [3]): 0% | Response Rate (%) CR + PR (Hodgkin's disease; [3]): 0% | Response Rate (%) PR (Hodgkin's disease; [3]): 0% | Response Rate (%) CR (Hodgkin's disease; [4]): 0% | Response Rate (%) CR + PR (Hodgkin's disease; [4]): 0% | Response Rate (%) PR (Hodgkin's disease; [4]): 0% | Response Rate (%) CR (Hodgkin's disease; Chemo-naïve Total, 0 patients): 0% | Response Rate (%) CR + PR (Hodgkin's disease; Chemo-naïve Total, 0 patients): 0% | Response Rate (%) PR (Hodgkin's disease; Chemo-naïve Total, 0 patients): 0% | Response Rate (%) CR (Hodgkin's disease; Chemo-refractory, 6 patients): 0% | Response Rate (%) CR + PR (Hodgkin's disease; Chemo-refractory, 6 patients): 0% | Response Rate (%) PR (Hodgkin's disease; Chemo-refractory, 6 patients): 0% | Efficacy CR (Hodgkin's disease; [3]): 0 | Efficacy MR (Hodgkin's disease; [3]): 0 | Efficacy PD (Hodgkin's disease; [3]): 0 | Efficacy PR (Hodgkin's disease; [3]): 0 | Efficacy SD (Hodgkin's disease; [3]): 0 | Efficacy CR (Hodgkin's disease; [4]): 0 | Efficacy MR (Hodgkin's disease; [4]): 0 | Efficacy PD (Hodgkin's disease; [4]): 0 | Efficacy PR (Hodgkin's disease; [4]): 0 | Efficacy SD (Hodgkin's disease; [4]): 0 | Efficacy CR (Hodgkin's disease; Chemo-naïve Total, 0 patients): 0 | Efficacy MR (Hodgkin's disease; Chemo-naïve Total, 0 patients): 0 | Efficacy PD (Hodgkin's disease; Chemo-naïve Total, 0 patients): 0 | Efficacy PR (Hodgkin's disease; Chemo-naïve Total, 0 patients): 0 | Efficacy SD (Hodgkin's disease; Chemo-naïve Total, 0 patients): 0 | Efficacy CR (Hodgkin's disease; Chemo-refractory, 6 patients): 0 | Efficacy MR (Hodgkin's disease; Chemo-refractory, 6 patients): 0 | Efficacy PD (Hodgkin's disease; Chemo-refractory, 6 patients): 1 | Efficacy PR (Hodgkin's disease; Chemo-refractory, 6 patients): 0 | Efficacy SD (Hodgkin's disease; Chemo-refractory, 6 patients): 5 | adverse effects compared to wild type TNF-α [2]: much fewer and weaker adverse effects | duration of chill [2]: ≤ 30 min | duration of chills [2]: no more than half an hour | duration of fever [2]: no more than half an hour | fever grade during the treatment [2]: Grade I | highest body temperature during the treatment [2]: 37.2 °C | patients with 3rd degree fever [2]: two | patients with chills [2]: 23% | patients with fever below the 2nd degree [2]: About 38% | patients with mild chills [2]: 11% | patients with slight chills [2]: 12% | time of occurrence of chills after the administration [2]: ≤ 30 min | time of occurrence of fever post administration [2]: 1 to 2 h | adverse reactions during the treatment ([2]; iv): slight asthenia | Response Rate (%) CR (Liver Cancer): 0.00% | Response Rate (%) CR + PR (Liver Cancer): 0.00% | Response Rate (%) PR (Liver Cancer): 0.00% | Efficacy CR (Liver Cancer; patient count): 0 | Efficacy MR (Liver Cancer; patient count): 0 | Efficacy PD (Liver Cancer; patient count): 2 | Efficacy PR (Liver Cancer; patient count): 0 | Efficacy SD (Liver Cancer; patient count): 10 | Response Rate (%) CR (Breast Cancer): 0.00% | Response Rate (%) CR + PR (Breast Cancer): 0.00% | Response Rate (%) PR (Breast Cancer): 0.00% | Efficacy CR (Breast Cancer; patient count): 0 | Efficacy MR (Breast Cancer; patient count): 0 | Efficacy PD (Breast Cancer; patient count): 4 | Efficacy PR (Breast Cancer; patient count): 0 | Efficacy SD (Breast Cancer; patient count): 6
